The values below are quoted from earlier work in paper PMC7650819.

In general, Kd refers to the equilibrium constant for the complex coming apart.

Series [1] addresses thrombin (human plasma) (Homo sapiens) (UniProt P00734+P00734). Briefly: literature value. As to conditions: AIR; ABB: 50 mM Tris-HCl, 140 mM NaCl, 1 mM MgCl2, 1% BSA, 0.05% Triton X-100, pH 7.4, overnight at 4 °C; aptamers refolded in 5 mM Tris-HCl, 1 M NaCl, 0.5 mM ….
The next series deals with TGF-β1 (Homo sapiens) (UniProt P01137). Briefly: literature value. As to conditions: DNA with phosphorothioates at positions marked by asterisks: CGCTCGGCTTCACGAGATTCGTGTC*GTTGTGTC*C*TGTA*C*C*C*GC*C*TTGA*C*C*A*GTC*A*C*TC*TA*GA*GC*A*TC*C*GGA*C*TG …; AIR; ABB: 50 mM Tris-HCl, 140 mM NaCl, 1 mM MgCl2, 1% BSA, 0.05% Triton X-100, pH 7.4, overnight at 4 °C; aptamers refolded in 5 mM Tris-HCl, 1 M NaCl, 0.5 mM E.
Chain of TGF-β1 (Homo sapiens) (P01137 279-390): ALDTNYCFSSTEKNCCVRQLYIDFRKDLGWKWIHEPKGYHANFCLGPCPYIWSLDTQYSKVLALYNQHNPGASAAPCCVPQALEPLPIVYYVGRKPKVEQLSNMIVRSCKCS

As for “TTTTTTTTTTTTTTTTTTTTAGTCCGTGGTAGGGCAGGTTGGGGTGACT [Thrombin 29-mer aptamer]”, the Kd in series [1] is 0.5 nM. On to “TTTTTTTTTTTTTTTTTTTTCGCTCGGCTTCACGAGATTCGTGTCGTTGTGTCCTGTACCCGCCTTGACCAGTCACTCTAGAGCATCCGGACTG [TGF-β1 thioaptamer]”, for which the Kd with TGF-β1 (Homo sapiens) is 90 nM. On to “TTTTTTTTTTTTTTTTTTTTGGTTGGTGTGGTTGG [Thrombin 15-mer aptamer]”, for which the Kd in series [1] is 100 nM.
